Laboratory results reported in patent publication US20260049138A1 (Chugai, published 2026).

Biological target: T1, CD3ε homodimer protein (human, UniProt P07766 23-126, limits assumed, sulfo-tag or biotin label in the ECL assays; amine-coupled to the chip in SPR)
T1 construct: also called human CD3ε homodimer protein; CD3 (CD3ε)
Assay: SPR Biacore T200; CD3ε homodimer on CM4 chip;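 note: Single-residue variant antibodies injected as analyte over CD3ε homodimer immobilized by amine coupling, run at 25 °C in HBS-EP+ buffer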
Method: An appropriate amount of CD3ε homodimer protein was immobilized onto Sensor chip CM4 (GE Healthcare Japan Corp.) by the amine coupling method. Then, the antibody having an appropriate concentration was injected thereto as an analyte and allowed to interact with the CD3ε homodimer protein on the sensor chip. Then, the sensor chip was regenerated by the injection of 10 mmol/L glycine-HCl (pH 1.5). The assay was conducted at 25° C., and HBS-EP+ (GE Healthcare Japan Corp.) was used as a running buffer. […] Each parameter was calculated using Biacore T200 Evaluation Software (GE Healthcare Japan Corp.).

T1 sequence (P07766 23-126 limits assumed): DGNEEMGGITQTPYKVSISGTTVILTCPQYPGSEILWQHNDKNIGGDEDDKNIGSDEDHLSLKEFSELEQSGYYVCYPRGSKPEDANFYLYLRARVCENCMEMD

| ratio of amounts bound Z=Y/X (altered form / CE115HA000) | Binder |
| --- | --- |
| 0.87 | CE115HA000 Y100aF one-arm antibody (antibody, human IgG1, kappa, L234A L235A, N297A, name in Kabat numbering) heavy: QVQLVESGGGVVQPGRSLRLSCAASGFTFSNAWMHWVRQAPGKGLEWVAQIKAKSNNYATYYAESVKGRFTISRDDSKNSLYLQMNSLKTEDTAVYYCRYVHYGAYFGVDAWGQGTTVTVSSASTKGPSVFPLAPSSKSTSGGTAALGCLVKDYFPEPVTVSWNSGALTSGVHTFPAVLQSSGLYSLSSVVTVPSSSLGTQTYICNVNHKPSNTKVDKKVEPKSCDKTHTCPPCPAPEAAGGPSVFLFPPKPKDTLMISRTPEVTCVVVDVSHEDPEVKFNWYVDGVEVHNAKTKPREEQYASTYRVVSVLTVLHQDWLNGKEYKCKVSNKALPAPIEKTISKAKGQPREPQVYTLPPSRCELTKNQVSLSCAVKGFYPSDIAVEWESNGQPENNYKTTPPVLDSDGSFFLVSKLTVDKSRWQQGNVFSCSVMHEALHNHYTQKSLSLSPDYKDDDDK EPKSSDKTHTCPPCPAPELLGGPSVFLFPPKPKDTLMISRTPEVTCVVVDVSHEDPEVKFNWYVDGVEVHNAKTKPREEQYNSTYRVVSVLTVLHQDWLNGKEYKCKVSNKALPAPIEKTISKAKGQPREPQVCTLPPSRDELTKNQVSLWCLVKGFYPSDIAVEWESNGQPENNYKTTPPVLDSDGSFFLYSKLTVDKSRWQQGNVFSCSVMHEALHNRYTQKSLSLSP light: DIVMTQSPLSLPVTPGEPASISCRSSQSLVHSNRNTYLHWYQQKPGQAPRLLIYKVSNRFSGVPDRFSGSGSGTDFTLKISRVEAEDVGVYYCGQGTQVPYTFGQGTKLEIKRTVAAPSVFIFPPSDEQLKSGTASVVCLLNNFYPREAKVQWKVDNALQSGNSQESVTEQDSKDSTYSLSSTLTLSKADYEKHKVYACEVTHQGLSSPVTKSFNRGEC |
| 1.23 | CE115HA000 Y100aG one-arm antibody (antibody, human IgG1, kappa, L234A L235A, N297A, name in Kabat numbering) heavy: QVQLVESGGGVVQPGRSLRLSCAASGFTFSNAWMHWVRQAPGKGLEWVAQIKAKSNNYATYYAESVKGRFTISRDDSKNSLYLQMNSLKTEDTAVYYCRYVHYGAYGGVDAWGQGTTVTVSSASTKGPSVFPLAPSSKSTSGGTAALGCLVKDYFPEPVTVSWNSGALTSGVHTFPAVLQSSGLYSLSSVVTVPSSSLGTQTYICNVNHKPSNTKVDKKVEPKSCDKTHTCPPCPAPEAAGGPSVFLFPPKPKDTLMISRTPEVTCVVVDVSHEDPEVKFNWYVDGVEVHNAKTKPREEQYASTYRVVSVLTVLHQDWLNGKEYKCKVSNKALPAPIEKTISKAKGQPREPQVYTLPPSRCELTKNQVSLSCAVKGFYPSDIAVEWESNGQPENNYKTTPPVLDSDGSFFLVSKLTVDKSRWQQGNVFSCSVMHEALHNHYTQKSLSLSPDYKDDDDK EPKSSDKTHTCPPCPAPELLGGPSVFLFPPKPKDTLMISRTPEVTCVVVDVSHEDPEVKFNWYVDGVEVHNAKTKPREEQYNSTYRVVSVLTVLHQDWLNGKEYKCKVSNKALPAPIEKTISKAKGQPREPQVCTLPPSRDELTKNQVSLWCLVKGFYPSDIAVEWESNGQPENNYKTTPPVLDSDGSFFLYSKLTVDKSRWQQGNVFSCSVMHEALHNRYTQKSLSLSP light: DIVMTQSPLSLPVTPGEPASISCRSSQSLVHSNRNTYLHWYQQKPGQAPRLLIYKVSNRFSGVPDRFSGSGSGTDFTLKISRVEAEDVGVYYCGQGTQVPYTFGQGTKLEIKRTVAAPSVFIFPPSDEQLKSGTASVVCLLNNFYPREAKVQWKVDNALQSGNSQESVTEQDSKDSTYSLSSTLTLSKADYEKHKVYACEVTHQGLSSPVTKSFNRGEC |
| 0.9 | CE115HA000 Y100aK one-arm antibody (antibody, human IgG1, kappa, L234A L235A, N297A, name in Kabat numbering) heavy: QVQLVESGGGVVQPGRSLRLSCAASGFTFSNAWMHWVRQAPGKGLEWVAQIKAKSNNYATYYAESVKGRFTISRDDSKNSLYLQMNSLKTEDTAVYYCRYVHYGAYKGVDAWGQGTTVTVSSASTKGPSVFPLAPSSKSTSGGTAALGCLVKDYFPEPVTVSWNSGALTSGVHTFPAVLQSSGLYSLSSVVTVPSSSLGTQTYICNVNHKPSNTKVDKKVEPKSCDKTHTCPPCPAPEAAGGPSVFLFPPKPKDTLMISRTPEVTCVVVDVSHEDPEVKFNWYVDGVEVHNAKTKPREEQYASTYRVVSVLTVLHQDWLNGKEYKCKVSNKALPAPIEKTISKAKGQPREPQVYTLPPSRCELTKNQVSLSCAVKGFYPSDIAVEWESNGQPENNYKTTPPVLDSDGSFFLVSKLTVDKSRWQQGNVFSCSVMHEALHNHYTQKSLSLSPDYKDDDDK EPKSSDKTHTCPPCPAPELLGGPSVFLFPPKPKDTLMISRTPEVTCVVVDVSHEDPEVKFNWYVDGVEVHNAKTKPREEQYNSTYRVVSVLTVLHQDWLNGKEYKCKVSNKALPAPIEKTISKAKGQPREPQVCTLPPSRDELTKNQVSLWCLVKGFYPSDIAVEWESNGQPENNYKTTPPVLDSDGSFFLYSKLTVDKSRWQQGNVFSCSVMHEALHNRYTQKSLSLSP light: DIVMTQSPLSLPVTPGEPASISCRSSQSLVHSNRNTYLHWYQQKPGQAPRLLIYKVSNRFSGVPDRFSGSGSGTDFTLKISRVEAEDVGVYYCGQGTQVPYTFGQGTKLEIKRTVAAPSVFIFPPSDEQLKSGTASVVCLLNNFYPREAKVQWKVDNALQSGNSQESVTEQDSKDSTYSLSSTLTLSKADYEKHKVYACEVTHQGLSSPVTKSFNRGEC |

Second part, the binder before the results:

| Binder | ratio of amounts bound Z=Y/X (altered form / CE115HA000) |
| --- | --- |
| CE115HA000 Y100W one-arm antibody (antibody, human IgG1, kappa, L234A L235A, N297A, name in Kabat numbering) heavy: QVQLVESGGGVVQPGRSLRLSCAASGFTFSNAWMHWVRQAPGKGLEWVAQIKAKSNNYATYYAESVKGRFTISRDDSKNSLYLQMNSLKTEDTAVYYCRYVHYGAWYGVDAWGQGTTVTVSSASTKGPSVFPLAPSSKSTSGGTAALGCLVKDYFPEPVTVSWNSGALTSGVHTFPAVLQSSGLYSLSSVVTVPSSSLGTQTYICNVNHKPSNTKVDKKVEPKSCDKTHTCPPCPAPEAAGGPSVFLFPPKPKDTLMISRTPEVTCVVVDVSHEDPEVKFNWYVDGVEVHNAKTKPREEQYASTYRVVSVLTVLHQDWLNGKEYKCKVSNKALPAPIEKTISKAKGQPREPQVYTLPPSRCELTKNQVSLSCAVKGFYPSDIAVEWESNGQPENNYKTTPPVLDSDGSFFLVSKLTVDKSRWQQGNVFSCSVMHEALHNHYTQKSLSLSPDYKDDDDK EPKSSDKTHTCPPCPAPELLGGPSVFLFPPKPKDTLMISRTPEVTCVVVDVSHEDPEVKFNWYVDGVEVHNAKTKPREEQYNSTYRVVSVLTVLHQDWLNGKEYKCKVSNKALPAPIEKTISKAKGQPREPQVCTLPPSRDELTKNQVSLWCLVKGFYPSDIAVEWESNGQPENNYKTTPPVLDSDGSFFLYSKLTVDKSRWQQGNVFSCSVMHEALHNRYTQKSLSLSP light: DIVMTQSPLSLPVTPGEPASISCRSSQSLVHSNRNTYLHWYQQKPGQAPRLLIYKVSNRFSGVPDRFSGSGSGTDFTLKISRVEAEDVGVYYCGQGTQVPYTFGQGTKLEIKRTVAAPSVFIFPPSDEQLKSGTASVVCLLNNFYPREAKVQWKVDNALQSGNSQESVTEQDSKDSTYSLSSTLTLSKADYEKHKVYACEVTHQGLSSPVTKSFNRGEC | 1.03 |
| CE115HA000 Y100aD one-arm antibody (antibody, human IgG1, kappa, L234A L235A, N297A, name in Kabat numbering) heavy: QVQLVESGGGVVQPGRSLRLSCAASGFTFSNAWMHWVRQAPGKGLEWVAQIKAKSNNYATYYAESVKGRFTISRDDSKNSLYLQMNSLKTEDTAVYYCRYVHYGAYDGVDAWGQGTTVTVSSASTKGPSVFPLAPSSKSTSGGTAALGCLVKDYFPEPVTVSWNSGALTSGVHTFPAVLQSSGLYSLSSVVTVPSSSLGTQTYICNVNHKPSNTKVDKKVEPKSCDKTHTCPPCPAPEAAGGPSVFLFPPKPKDTLMISRTPEVTCVVVDVSHEDPEVKFNWYVDGVEVHNAKTKPREEQYASTYRVVSVLTVLHQDWLNGKEYKCKVSNKALPAPIEKTISKAKGQPREPQVYTLPPSRCELTKNQVSLSCAVKGFYPSDIAVEWESNGQPENNYKTTPPVLDSDGSFFLVSKLTVDKSRWQQGNVFSCSVMHEALHNHYTQKSLSLSPDYKDDDDK EPKSSDKTHTCPPCPAPELLGGPSVFLFPPKPKDTLMISRTPEVTCVVVDVSHEDPEVKFNWYVDGVEVHNAKTKPREEQYNSTYRVVSVLTVLHQDWLNGKEYKCKVSNKALPAPIEKTISKAKGQPREPQVCTLPPSRDELTKNQVSLWCLVKGFYPSDIAVEWESNGQPENNYKTTPPVLDSDGSFFLYSKLTVDKSRWQQGNVFSCSVMHEALHNRYTQKSLSLSP light: DIVMTQSPLSLPVTPGEPASISCRSSQSLVHSNRNTYLHWYQQKPGQAPRLLIYKVSNRFSGVPDRFSGSGSGTDFTLKISRVEAEDVGVYYCGQGTQVPYTFGQGTKLEIKRTVAAPSVFIFPPSDEQLKSGTASVVCLLNNFYPREAKVQWKVDNALQSGNSQESVTEQDSKDSTYSLSSTLTLSKADYEKHKVYACEVTHQGLSSPVTKSFNRGEC | 0.31 |
| CE115HA000 Y100aA one-arm antibody (antibody, human IgG1, kappa, L234A L235A, N297A, name in Kabat numbering) heavy: QVQLVESGGGVVQPGRSLRLSCAASGFTFSNAWMHWVRQAPGKGLEWVAQIKAKSNNYATYYAESVKGRFTISRDDSKNSLYLQMNSLKTEDTAVYYCRYVHYGAYAGVDAWGQGTTVTVSSASTKGPSVFPLAPSSKSTSGGTAALGCLVKDYFPEPVTVSWNSGALTSGVHTFPAVLQSSGLYSLSSVVTVPSSSLGTQTYICNVNHKPSNTKVDKKVEPKSCDKTHTCPPCPAPEAAGGPSVFLFPPKPKDTLMISRTPEVTCVVVDVSHEDPEVKFNWYVDGVEVHNAKTKPREEQYASTYRVVSVLTVLHQDWLNGKEYKCKVSNKALPAPIEKTISKAKGQPREPQVYTLPPSRCELTKNQVSLSCAVKGFYPSDIAVEWESNGQPENNYKTTPPVLDSDGSFFLVSKLTVDKSRWQQGNVFSCSVMHEALHNHYTQKSLSLSPDYKDDDDK EPKSSDKTHTCPPCPAPELLGGPSVFLFPPKPKDTLMISRTPEVTCVVVDVSHEDPEVKFNWYVDGVEVHNAKTKPREEQYNSTYRVVSVLTVLHQDWLNGKEYKCKVSNKALPAPIEKTISKAKGQPREPQVCTLPPSRDELTKNQVSLWCLVKGFYPSDIAVEWESNGQPENNYKTTPPVLDSDGSFFLYSKLTVDKSRWQQGNVFSCSVMHEALHNRYTQKSLSLSP light: DIVMTQSPLSLPVTPGEPASISCRSSQSLVHSNRNTYLHWYQQKPGQAPRLLIYKVSNRFSGVPDRFSGSGSGTDFTLKISRVEAEDVGVYYCGQGTQVPYTFGQGTKLEIKRTVAAPSVFIFPPSDEQLKSGTASVVCLLNNFYPREAKVQWKVDNALQSGNSQESVTEQDSKDSTYSLSSTLTLSKADYEKHKVYACEVTHQGLSSPVTKSFNRGEC | 0.62 |
